Reference: article PMC7515736, “Genome-wide binding of [sequence]3 and AGAMOUS complexes determined by sequential DNA-affinity purification sequencing”

B1: KNU +10 (96 bp) (dsDNA)
DNA 1: AAACATAGAAACCTTCCATGTTTGGCAATTTCATCTTGGAAGTCAGTAGCTCTTGATTCACTCTCTCTTGTCTTCTTTGTGCATCACAAGAACAAC
DNA 2: GTTGTTCTTGTGATGCACAAAGAAGACAAGAGAGAGTGAATCAAGAGCTACTGACTTCCAAGATGAAATTGCCAAACATGGAAGGTTTCTATGTTT
B2: KNU -10 (96 bp) (dsDNA)
DNA 1: GAAAGAGGGTAAGAGAAACATAGAAACCTTCCATGTTTGGCAATTTCATCTTGGACTCTCTCTTGTCTTCTTTGTGCATCACAAGAACAACAAATA
DNA 2: TATTTGTTGTTCTTGTGATGCACAAAGAAGACAAGAGAGAGTCCAAGATGAAATTGCCAAACATGGAAGGTTTCTATGTTTCTCTTACCCTCTTTC
B3: KNU WT (dsDNA)
DNA 1: GGTAAGAGAAACATAGAAACCTTCCATGTTTGGCAATTTCATCTTGGAACTTGATTCACTCTCTCTTGTCTTCTTTGTGCATCACAAGAACAACAA
DNA 2: TTGTTGTTCTTGTGATGCACAAAGAAGACAAGAGAGAGTGAATCAAGTTCCAAGATGAAATTGCCAAACATGGAAGGTTTCTATGTTTCTCTTACC
B4: KNU +5 (96 bp) (dsDNA)
DNA 1: AGAGAAACATAGAAACCTTCCATGTTTGGCAATTTCATCTTGGAAGTCAGCTTGATTCACTCTCTCTTGTCTTCTTTGTGCATCACAAGAACAACA
DNA 2: TGTTGTTCTTGTGATGCACAAAGAAGACAAGAGAGAGTGAATCAAGCTGACTTCCAAGATGAAATTGCCAAACATGGAAGGTTTCTATGTTTCTCT
B5: KNU -5 (96 bp) (dsDNA)
DNA 1: AGAGGGTAAGAGAAACATAGAAACCTTCCATGTTTGGCAATTTCATCTTGGAACTTACTCTCTCTTGTCTTCTTTGTGCATCACAAGAACAACAAA
DNA 2: TTTGTTGTTCTTGTGATGCACAAAGAAGACAAGAGAGAGTAAGTTCCAAGATGAAATTGCCAAACATGGAAGGTTTCTATGTTTCTCTTACCCTCT
B6: KNU +10 probe (106 bp) (dsDNA)
DNA 1: GGTAAGAGAAACATAGAAACCTTCCATGTTTGGCAATTTCATCTTGGAAGTCAGTAGCTCTTGATTCACTCTCTCTTGTCTTCTTTGTGCATCACAAGAACAACAA
DNA 2: TTGTTGTTCTTGTGATGCACAAAGAAGACAAGAGAGAGTGAATCAAGAGCTACTGACTTCCAAGATGAAATTGCCAAACATGGAAGGTTTCTATGTTTCTCTTACC
B7: KNU -10 probe (86 bp) (dsDNA)
DNA 1: GGTAAGAGAAACATAGAAACCTTCCATGTTTGGCAATTTCATCTTGGACTCTCTCTTGTCTTCTTTGTGCATCACAAGAACAACAA
DNA 2: TTGTTGTTCTTGTGATGCACAAAGAAGACAAGAGAGAGTCCAAGATGAAATTGCCAAACATGGAAGGTTTCTATGTTTCTCTTACC

Molecular target: SEP3Δtet (SEP3 splice variant);AG (AGAMOUS) (Arabidopsis thaliana;Arabidopsis …, UniProt F4I972;P17839 1-237;1-252, del161-174|)
Sequence (P17839 other isoform, or with tags, fused parts or gaps del161-174| | mutant, chain 1 of 2): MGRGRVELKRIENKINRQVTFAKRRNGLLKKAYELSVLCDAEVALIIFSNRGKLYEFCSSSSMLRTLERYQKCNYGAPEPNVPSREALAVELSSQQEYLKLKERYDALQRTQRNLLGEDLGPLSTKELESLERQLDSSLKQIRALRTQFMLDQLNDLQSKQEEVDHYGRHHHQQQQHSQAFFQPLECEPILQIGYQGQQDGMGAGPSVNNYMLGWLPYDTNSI
Sequence (P17839 whole entry, stated change not applied, chain 2 of 2, canonical isoform): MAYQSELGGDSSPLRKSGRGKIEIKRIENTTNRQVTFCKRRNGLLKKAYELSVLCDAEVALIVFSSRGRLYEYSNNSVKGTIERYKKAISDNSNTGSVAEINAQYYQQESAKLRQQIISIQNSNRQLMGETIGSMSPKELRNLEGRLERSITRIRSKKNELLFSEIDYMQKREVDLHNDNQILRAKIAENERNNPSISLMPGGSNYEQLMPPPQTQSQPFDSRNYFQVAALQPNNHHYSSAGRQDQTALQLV
Experiment: EMSA; dimer; EMSA as in the authors' ref. 20 (buffer, salt, pH, temperature not given); Cy5 probes; unpurified wheat germ TnT proteins
Details: protein: ivt;ivt; tags: C-terminal 3xFLAG;C-terminal 5xMyc; copies: 1;1; label: Cy5; blunt

Binding result, binds:
B1
B2
B3
B4
B5

Molecular target: SEP3 (…3);AG (AGAMOUS) (Arabidopsis thaliana;Arabidopsis …, UniProt O22456;P17839 1-251;1-252, |)
Sequence (O22456 whole entry, chain 1 of 2): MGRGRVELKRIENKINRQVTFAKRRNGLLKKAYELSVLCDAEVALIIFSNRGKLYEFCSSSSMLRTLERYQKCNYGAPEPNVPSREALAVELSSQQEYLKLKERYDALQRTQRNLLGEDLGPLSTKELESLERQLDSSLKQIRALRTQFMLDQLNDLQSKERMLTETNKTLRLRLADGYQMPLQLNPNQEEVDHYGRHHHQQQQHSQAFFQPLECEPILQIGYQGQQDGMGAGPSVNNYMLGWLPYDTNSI
Sequence (P17839 whole entry, chain 2 of 2): as the sequence (P17839 whole entry, stated change not applied, chain 2 of 2, canonical isoform) above
Experiment: EMSA; tetramer; EMSA as in the authors' ref. 20 (buffer, salt, pH, temperature not given); Cy5 probes; unpurified wheat germ TnT proteins
Details: protein: ivt;ivt; tags: C-terminal 3xFLAG;C-terminal 5xMyc; copies: 1;1; label: Cy5; blunt

Binding result, binds:
B6
B1
B2
B3
B7
